B1: Fab B11 (Fab, V domains shown)
VH: EVQLVESGGGLVQPGGSLRLSCAASGFNISSSSIHWVRQAPGKGLEWVASISPYYSSTSYADSVKGRFTISADTSKNTAYLQMNSLRAEDTAVYYCARGPGYAMDYWGQGTLVTVSS
VL: DIQMTQSPSSLSASVGDRVTITCRASQSVSSAVAWYQQKPGKAPKLLIYSASSLYSGVPSRFSGSRSGTDFTLTISSLQPEDFATYYCQQYYYAPITFGQGTKVEIK
B2: Fab B11 displayed on phage (Fab, V domains shown)
VH: B1 VH
VL: B1 VL

How the values were obtained:
[1] = target: full-length p67 of Theileria parva with a C-terminal His-tag (Theileria parva, strain not told, UniProt Q4MZ78); experiment: BLI
[2] = target: ubiquitin (Homo sapiens (assumed; species not …, UniProt P0CG48); experiment: ELISA
[3] = target: bovine serum albumin (Bos taurus, UniProt P02769); experiment: ELISA
[4] = target: His-p67C (p67 residues 572-651) (Theileria parva, strain not told, UniProt Q4MZ78); experiment: ELISA
[5] = target: T1, p67C^1 (p67 residues 572-612) (Theileria parva, UniProt Q4MZ78); experiment: ELISA
T1 chain: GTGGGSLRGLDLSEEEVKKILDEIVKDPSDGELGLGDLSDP

[6] = target: the fusion tag (GST) (Schistosoma japonicum (assumed, usual …, UniProt P08515 = GST)); experiment: ELISA

Chain of bovine serum albumin (P02769 25-607): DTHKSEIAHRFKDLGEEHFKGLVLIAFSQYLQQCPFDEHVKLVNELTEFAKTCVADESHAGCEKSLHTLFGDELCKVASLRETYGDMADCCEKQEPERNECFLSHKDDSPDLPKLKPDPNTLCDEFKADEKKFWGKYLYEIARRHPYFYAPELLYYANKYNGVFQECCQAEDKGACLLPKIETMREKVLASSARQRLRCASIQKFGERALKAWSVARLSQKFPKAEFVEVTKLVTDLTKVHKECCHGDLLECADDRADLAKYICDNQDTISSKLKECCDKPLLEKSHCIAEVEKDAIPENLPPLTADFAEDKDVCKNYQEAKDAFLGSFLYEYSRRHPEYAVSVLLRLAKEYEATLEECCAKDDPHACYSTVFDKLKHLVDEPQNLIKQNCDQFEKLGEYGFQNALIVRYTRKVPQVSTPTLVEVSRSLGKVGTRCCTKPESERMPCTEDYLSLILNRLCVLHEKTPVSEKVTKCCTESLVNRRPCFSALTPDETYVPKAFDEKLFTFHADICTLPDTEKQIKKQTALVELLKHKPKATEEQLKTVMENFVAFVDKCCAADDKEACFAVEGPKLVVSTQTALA

Binder | Kd [1] | binding result [2] | binding result [3] | EC50 [4] | binding result [5] | binding result [6]
B1 | 79 nM | no binding | no binding | 25 nM | binds | 
B2 |  |  |  |  |  | no binding
